Test results as given in the DeepSol protein solubility set.

Assay: soluble on expression in E. coli; label from the status in PepcDB or PDB records
For “MARTVFCTRLQKEADGLDFQLYPGELGKRIFDNICKEAWAQWQTKQTMLINEKKLNMMDPEHRKLLEQEMVNFLFEGKEVHIEGYTPPAK”, the “soluble on expression in E. coli” value was “not soluble”.
In the case of “MSIEVGNKLKGKVTGIKKFGAFVELPEGKSGLVHISEVADNYVENVEEHLSVGDEVDVKVLSIADDGKISLSIKKAKDRPRRQHTSKPSHQKPVQKAEDFEKKLSNFLKDSEDKLTSIKRQTESRRGGKGSRR”, the “soluble on expression in E. coli” value is reported as “not soluble”.
For “MASWSHPQFEKGASLDSPTFGCTDSPVRRERGQKAVFCGLTSIVWLHRKMQDAFFLVVGSRTCAHLLQAAAGVMIFAEPRFGTAVLEEQDLAGLADAHKELDREVAKLLERRPDIRQLFLVGSCPSEVLKLDLDRAAERLSGLHAPHVRVYSYTGSGLDTTFTQGEDTCLAAMVPTLDTTEAAELIVVGALPDVVEDQCLSLLTQLGVGPVRMLPARRSDIEPAVGPNTRFILAQPFLGETTGALERRGAKRIAAPFPFGEEGTTLWLKAVADAYGVSAEKFEAVTAAPRARAKKAIAAHLETLTGKSLFMFPDSQLEIPLARFLARECGMKTTEIATPFLHKAIMAPDLALLPSNTALTEGQDLEAQLDRHEAINPDLTVCGLGLANPLEAKGHATKWAIELVFTPVHFYEQAGDLAGLFSRPLRRRALLNGGAA”, the “soluble on expression in E. coli” value was “soluble”.
In the case of “MASKVYDPEQRKRMITGPQWWARCKQMNVLDSFINYYDSEKHAENAVIFLHGNATSSYLWRHVVPHIEPVARCIIPDLIGMGKSGKSGNGSYRLLDHYKYLTAWFELLNLPKKIIFVGHDWGAALAFHYAYEHQDRIKAIVHMESVVDVIESWDEWPDIEEDIALIKSEEGEKMVLENNFFVETVLPSKIMRKLEPEEFAAYLEPFKEKGEVRRPTLSWPREIPLVKGGKPDVVQIVRNYNAYLRASDDLPKLFIESDPGFFSNAIVEGAKKFPNTEFVKVKGLHFLQEDAPDEMGKYIKSFVERVLKNEQVDHHHHHH”, the “soluble on expression in E. coli” value is reported as “soluble”.
In the case of “YTDRKNRIVEVDIASKAKRTVMQNPEGEFYEVNYSPDSQWITYTKSGANNMSVIYVYHLTSGKEYPVTE”, the “soluble on expression in E. coli” value is reported as “not soluble”.
For “AATTGYDAVDDLLHYHERGNGIQINGKDSFSNEQAGLFITRENQTWNGYKVFGQPVKLTFSFPDYKFSSTNVAGDTGLSKFSAEQQQQAKLSLQSWADVANITFTEVAAGQKANITFGNYSQDRPGHYDYGTQAYAFLPNTIWQGQDLGGQTWYNVNQSNVKHPATEDYGRQTFTHEIGHALGLSHPGDYNAGEGNPTYNDVTYAEDTRQFSLMSYWSETNTGGDNGGHYAAAPLLDDIAAIQHLYGANLSTRTGDTVYGFNSNTGRDFLSTTSNSQKVIFAAWDAGGNDTFDFSGYTANQRINLNEKSFSDVGGLKGNVSIAAGVTIENAIGGSGNDVIVGNAANNVLKGGAGNDVLFGGGGADELWGGAGKDIFVFSAASDSAPGASDWIRDFQKGIDKIDLSFFNKEANSSDFIHFVDHFSGTAGEALLSYNASSNVTDLSVNIGGHQAPDFLVKIVGQVDVATDFIV”, the “soluble on expression in E. coli” value was “soluble”.
With “MAHHHHHHMSEERVKILVLGPSRSGKSTIANFLAGLRETPTKGYYETQPLRILEVEIGLDNLKVGGRHVVGPKKAIVQLWDLGGSSKHQAGWQAVAANADGIIYVFNPEVRGAEKELVLWHKNFALDQDKLDERNNFKVRVPDKHSLVFSHHSSMPELAVGDNAIPSLPKQLRGVRAIETSLDYQSGNFKEAFDAMVEQIVVSRIVAEEDEILQKEREAGDAPRMVR” the “soluble on expression in E. coli” value was “not soluble”.
In the case of “MGSDKIHHHHHHMTDLGLYRHLDQMAPWNDRLQVLEVIGVSDEAPDVKTFTFRSDNQTWFRYKPGQFVTLELPTPDGPLMRTYTLSSSPSRPFSIAVTVKAQAGSIGTRWMFDHLVPGSHVKAYGPSGDFSLHSHPAAKYLFISAGSGVTPMMSMLRWLNDCAPWTDVGFVNCARRPEEIIFRKELELLGGHMPGLSLGFMIEERSSREGWYGHMGRIDAIRLPLLAPDFREREIFCCGPDPFMRAVRGMLEAAGFDMTKYHQESFAAPAVEEVPAPFVSPGEDGVTVPVEATPIRFALSVVDAECVAGQTVLQTARASGVRIPAACEFGLCGTCKVKKVSGAVEMSHNGGILDHEIDDGFILACCSKPLSALEIEA”, the “soluble on expression in E. coli” value is reported as “not soluble”.
With “AEALAAGQRRIAKGERDFKDRVGFLRGRARPASTLITRFIADHQGHREGPDGLRWGVESICTQLTELGVPIAPSTYYDHINREPSRRELRDGELKEHISRVHAANYGVYGARKVWLTLNREGIEVARCTVERLMTKLGLSGTTRGKARRTTIADPATARPADLVQRRFGPPAPNRLWVADLTYVSTWAGFAYVAFVTDAYARRILGWRVASTMATSMVLDAIEQAIWTRQQEGVLDLKDVIHHTDRGSQYTSIRFSERLAEAGIQPSVGAVGSSYDNALAETINGLYKTELIKPGKPWRSIEDVELATARWVDWFNHRRLYQYCGDVPPVELEAAYYAQRQRPAAG” the “soluble on expression in E. coli” value was “soluble”.
In the case of “MKQKEYMEYRPLGEEIERIRKGKNIPLRVFDENGVSSRSYQRFVQGNSELRISDLAIIVEILSISPMEMTEKLTPMSKTVLAKEQFNQAIFSKNFQESSRIVADYRAYYEKSSFALGKQEVMYSMLALEYLFNPQTVVTKEEIIALENQILERLINADVYTIFNLKFLALQKNVGLQPFPTSLLFRVLQSVNEREIIDIRSLEIIEQVIIDFLFAAIVSQNVPHILHVLSMFKEYEVGENNWRMILWKKIAEKIEMILTNEEIFADWSIFKEQILLSITLFLPKAKQEFFAGQLEKIEDSLKEIKEN”, the “soluble on expression in E. coli” value is reported as “not soluble”.
For “MGCEPKRDCGCCQNSICEFLQSLEPYTKVESIIIAGNEIAVSYFLSFNKKTGIVSFVQEDNEVIFVDCSKIDAIRIGKVCSCKTKVKYIEEDFSLLGNVCPHCLTEGSTIFFDFNNPELNVSFQATTINPPRCTEFTDDLGNVVKQITIVGEAKVSRDFVQVPELVGFRLLLSHLAGDPLNYGLLFINFPDTIFIFILASSGYLSISNCLKIEGGTGDAEIEEMKKMIEDDVNTYKSVVKLTKVYKNGETESFIYKNEL”, the “soluble on expression in E. coli” value was “not soluble”.
With “MRGFLFSMAQHFSLSAEARHLSIQVDELSDVEILSLLKTARWGNADNINDIECPHCHVRHEAYFIKTRQQWQCKHCCYRFSITAGTIFHLAKLSLRKILKALRYFALKSKGLSAIELSHEINVQYKTAWGLRHKFREALDKTKDLTPLKDEVHIDGAYTNYYIRPKNFRHKRIDRRKKRYQREDKSCVLVFRQRAANQAQMKGADRSIVALIKEENTQDVLDLTQRLVKQGSTIHTDENPAYDSLQFLYDLWRVNHSQEYCSIEGITNNLAESFFARFRRMIIGVHHKMANRYMLYYANEIAWREDNRLKTDREKLNDVLQRCIKTKPSRHFTGYWQGSKKSPETFGLESINASNDSHYLIAALEHHHHHH” the “soluble on expression in E. coli” value was “not soluble”.
In the case of “MKLLLLLCISCIPLAYSHDGEPFDYLMFTTIYPTAVCRADDDSVPESCEIPSGTPQWSIHGLWPNFENGSYPQNCRGTPRHFDENLIKSIEDRLVVVWPNLYPKKTIQSFWKHEYDKHGTCAQSEKLFESELAYFTEVMKVFDSIDVAGGLKSVGPSEKPITSSDLKNALSGVTSGKTFQFHCLRDKKTKQFLLGDIRLCLNKDLTIRDCPTDGKHPNRVSRFERSIGRNRRGPPLPSFQPCPAEFIYLPEMSSISKSSDSTSPSIFGRIWSAIKNIGN”, the “soluble on expression in E. coli” value is reported as “not soluble”.
With “GPGSMTDYIRDGQAIYDRSFAIIRAEADLRHIPADLEKLAVRVIHACGMVDVANDLAFSEGAGKAGRNALLAGAPILCDARMVAEGITRSRLPADNRVIYTLSDPSVPELAKKIGNTRSAAALDLWLPHIEGSIVAIGNAPTALFRLFELLDAGAPKPALIIGMPVGFVGAAESKDELAANSRGVPYVIVRGRRGGSAMTAAAVNALASERE” the “soluble on expression in E. coli” value was “soluble”.
In the case of “HHHHHHYMEQEEDWDRDLLLDPAWEKQQRKTFTAWCNSHLRKAGTQIENIEEDFRNGLKLMLLLEVISGERLPRPDKGKMRFHKIANVNKALDFIASKGVKLVSIGAEEIVDGNLKMTLGMIWTIILRFAIQDISVEETSAKEGLLLWCQRKTAPYRNVNVQNFHTSWKDGLALCALIHRHRPDLIDYAKLRKDDPIGNLNTAFEVAEKYLDIPKMLDAEDIVNTPKPDEKAIMTYVSCFYHAFAGAEQAETAA”, the “soluble on expression in E. coli” value is reported as “soluble”.
